Measured values as given in US20070293656A1, “COLLAGEN BINDING PEPTIDES” (Epix Pharmaceuticals, Inc., priority 2005, published 2007).
Bridge positions count the residues as written; N and C are the ends. Ends that are not written are not given here. Glu‑DTPA‑Gd = N-terminal Glu-DTPA-Gd chelate (gadolinium DTPA complex on glutamic acid)

Experiments:
human type I collagen = molecular target: T1, human type I collagen (Homo sapiens, UniProt P02452+P08123); test: MR phantom study: T1 of samples in human collagen gel; assay type: physicochemical; conditions: in 7.5 μM human collagen gel; 10 μM Compound ID 1022; 0.47 Tesla, 37° C.
T1 construct: Acid soluble human collagen extracted from placenta; purchased Sigma C7774 (lot #083K375); host or cells: human placenta
Method: Acid soluble human collagen type I extracted from placenta (Sigma, cat #C7774, lot #083K375) was dissolved in 15 mM HCl (3.5 mg/mL) by vortexing and gently shaking for 3-4 hours at 4° C. The acid soluble collagen was dialyzed against PBS (pH 7.4). Protein concentration was determined by the BCA method (Pierce, Cat #23225) using bovine collagen (Vitrogen, cat #FXP-019) as a reference standard. The final collagen concentration for the stock solution was 9 μM.
(§1) Samples: • 1. […] Sample prepared as sample 2, but centrifuged to separate insoluble rat collagen gel • 5. Sample prepared as sample 3, but centrifuged to separate insoluble human collagen gel • 6. 27 μM GdDTPA solution in PBS, pH 7.4 • 7. 27 μM GdDTPA in a solution of 5.0 μM rat type I collagen in 10 mM phosphate buffer, pH 5 incubated at 37° C. overnight to form a gel • 8. Sample prepared as in sample 7, but centrifuged to separate insoluble rat collagen gel • 9. Homogeneous gel of 5 μM rat collagen • 10. Homogeneous gel of 7.5 μM human collagen
T1 was determined for samples 1, 2, 3, 6, 7, 9, 10 at 0.47 Tesla using a Bruker NMS120 minispec NMR analyzer operating at 37° C.

rat type I collagen = molecular target: T2, rat type I collagen (Rattus norvegicus, UniProt P02454+P02466); test: MR phantom imaging of collagen gel samples at 4.7 T; conditions: centrifuged samples 4 and 8, 4.7 T
T2 construct: Rat collagen (acid soluble, type I, rat tail); purchased Upstate USA, Inc 08-115; host or cells: rat tail
Method: as §1
Samples for imaging were placed in glass tubes that were in turn placed in tubes containing water. Images were acquired at 4.7 T on a Bruker Biospec Imager using a Multi-Slice Multi-Echo Method with variable Relaxation Delay (MSMEVTR) experiment. The spin echo time and the relaxation delay were set to TE=11.2 ms and TR=500 ms, respectively with a flip angle of 30°. Images were acquired of sample 2, sample 4, sample 7, and sample 8. […] Sample 7 and 8 show uniform signal intensity.

T1 sequence (P02452 162-1218 limits assumed): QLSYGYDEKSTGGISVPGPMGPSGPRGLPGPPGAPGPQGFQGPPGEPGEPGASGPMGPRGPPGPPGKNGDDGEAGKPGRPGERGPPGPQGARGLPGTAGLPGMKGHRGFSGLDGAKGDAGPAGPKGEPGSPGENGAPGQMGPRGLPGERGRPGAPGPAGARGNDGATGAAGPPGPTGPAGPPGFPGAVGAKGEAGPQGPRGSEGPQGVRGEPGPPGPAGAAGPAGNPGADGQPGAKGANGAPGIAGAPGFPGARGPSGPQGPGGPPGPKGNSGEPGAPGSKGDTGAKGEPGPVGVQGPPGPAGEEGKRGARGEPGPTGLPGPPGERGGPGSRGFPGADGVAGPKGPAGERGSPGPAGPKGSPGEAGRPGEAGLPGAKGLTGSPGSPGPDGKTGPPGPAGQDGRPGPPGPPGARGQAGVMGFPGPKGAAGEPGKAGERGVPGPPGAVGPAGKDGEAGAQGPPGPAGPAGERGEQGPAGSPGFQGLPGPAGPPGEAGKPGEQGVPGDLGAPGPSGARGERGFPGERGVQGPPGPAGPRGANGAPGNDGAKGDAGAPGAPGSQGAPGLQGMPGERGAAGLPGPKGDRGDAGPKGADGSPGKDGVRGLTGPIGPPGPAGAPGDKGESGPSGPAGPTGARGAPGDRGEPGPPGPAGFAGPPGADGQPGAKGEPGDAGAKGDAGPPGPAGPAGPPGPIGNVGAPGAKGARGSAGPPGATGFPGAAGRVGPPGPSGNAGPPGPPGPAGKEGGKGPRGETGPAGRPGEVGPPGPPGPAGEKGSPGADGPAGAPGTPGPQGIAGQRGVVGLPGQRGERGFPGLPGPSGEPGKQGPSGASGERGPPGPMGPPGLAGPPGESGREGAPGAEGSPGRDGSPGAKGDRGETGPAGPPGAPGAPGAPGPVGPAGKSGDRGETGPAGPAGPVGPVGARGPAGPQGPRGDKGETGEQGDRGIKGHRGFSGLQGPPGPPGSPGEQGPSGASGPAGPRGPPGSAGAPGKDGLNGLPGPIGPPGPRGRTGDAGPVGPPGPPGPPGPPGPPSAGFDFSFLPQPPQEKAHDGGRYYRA
T1 sequence (P08123 80-1119 limits assumed): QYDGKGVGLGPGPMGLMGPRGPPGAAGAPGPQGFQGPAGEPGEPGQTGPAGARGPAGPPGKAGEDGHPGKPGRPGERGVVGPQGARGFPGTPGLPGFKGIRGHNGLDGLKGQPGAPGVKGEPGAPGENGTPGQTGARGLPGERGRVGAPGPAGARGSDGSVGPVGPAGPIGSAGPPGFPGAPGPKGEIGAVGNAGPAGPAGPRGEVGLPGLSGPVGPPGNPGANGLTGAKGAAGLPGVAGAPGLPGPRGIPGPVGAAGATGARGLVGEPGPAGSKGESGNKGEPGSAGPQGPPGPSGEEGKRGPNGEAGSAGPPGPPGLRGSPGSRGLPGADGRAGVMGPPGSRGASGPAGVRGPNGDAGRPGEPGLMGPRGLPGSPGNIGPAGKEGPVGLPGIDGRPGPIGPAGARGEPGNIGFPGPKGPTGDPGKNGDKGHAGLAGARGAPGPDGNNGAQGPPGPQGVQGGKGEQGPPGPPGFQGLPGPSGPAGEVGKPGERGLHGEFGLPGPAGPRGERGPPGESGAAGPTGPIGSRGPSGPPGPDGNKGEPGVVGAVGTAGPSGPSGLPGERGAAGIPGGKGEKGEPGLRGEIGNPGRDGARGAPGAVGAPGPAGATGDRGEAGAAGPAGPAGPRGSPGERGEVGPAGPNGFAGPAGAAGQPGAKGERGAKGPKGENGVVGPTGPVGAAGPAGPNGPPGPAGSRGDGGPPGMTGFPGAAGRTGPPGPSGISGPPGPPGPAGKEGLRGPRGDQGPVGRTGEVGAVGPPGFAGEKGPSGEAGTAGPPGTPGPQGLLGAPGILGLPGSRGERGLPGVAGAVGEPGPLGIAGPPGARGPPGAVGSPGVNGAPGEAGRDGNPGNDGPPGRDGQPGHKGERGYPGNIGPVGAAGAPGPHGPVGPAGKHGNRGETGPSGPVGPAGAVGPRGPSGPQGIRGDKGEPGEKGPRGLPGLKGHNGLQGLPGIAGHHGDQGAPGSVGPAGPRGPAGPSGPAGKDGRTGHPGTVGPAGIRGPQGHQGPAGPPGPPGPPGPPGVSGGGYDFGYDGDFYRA
T2 sequence (P02454 152-1207 limits assumed): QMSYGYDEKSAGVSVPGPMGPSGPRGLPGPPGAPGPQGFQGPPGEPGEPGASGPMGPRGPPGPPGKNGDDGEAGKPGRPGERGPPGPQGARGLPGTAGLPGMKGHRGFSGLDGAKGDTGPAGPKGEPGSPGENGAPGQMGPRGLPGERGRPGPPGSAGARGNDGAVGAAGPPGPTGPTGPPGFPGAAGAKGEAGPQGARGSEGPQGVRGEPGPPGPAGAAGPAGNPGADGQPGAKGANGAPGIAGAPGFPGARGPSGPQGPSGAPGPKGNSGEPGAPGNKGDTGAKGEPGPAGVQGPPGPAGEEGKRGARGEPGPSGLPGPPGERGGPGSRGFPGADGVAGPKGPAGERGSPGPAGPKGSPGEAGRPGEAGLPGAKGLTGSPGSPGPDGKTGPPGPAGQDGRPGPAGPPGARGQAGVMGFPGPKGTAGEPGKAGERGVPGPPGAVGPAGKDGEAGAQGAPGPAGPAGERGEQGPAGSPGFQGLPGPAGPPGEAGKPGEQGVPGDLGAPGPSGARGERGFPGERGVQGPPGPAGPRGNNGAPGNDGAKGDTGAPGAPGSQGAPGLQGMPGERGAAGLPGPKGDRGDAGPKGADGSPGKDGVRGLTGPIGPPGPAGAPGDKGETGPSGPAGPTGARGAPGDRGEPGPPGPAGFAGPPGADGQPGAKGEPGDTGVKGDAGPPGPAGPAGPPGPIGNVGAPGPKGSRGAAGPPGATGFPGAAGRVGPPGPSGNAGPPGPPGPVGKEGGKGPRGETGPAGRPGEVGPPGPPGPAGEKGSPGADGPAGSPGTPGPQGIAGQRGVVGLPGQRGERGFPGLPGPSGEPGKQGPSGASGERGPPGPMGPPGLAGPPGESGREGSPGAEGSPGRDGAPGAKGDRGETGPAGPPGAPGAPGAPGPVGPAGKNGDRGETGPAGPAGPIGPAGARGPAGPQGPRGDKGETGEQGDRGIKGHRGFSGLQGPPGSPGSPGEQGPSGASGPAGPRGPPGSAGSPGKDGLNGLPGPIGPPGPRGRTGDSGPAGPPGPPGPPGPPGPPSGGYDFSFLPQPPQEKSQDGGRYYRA
T2 sequence (P02466 86-1125 limits assumed): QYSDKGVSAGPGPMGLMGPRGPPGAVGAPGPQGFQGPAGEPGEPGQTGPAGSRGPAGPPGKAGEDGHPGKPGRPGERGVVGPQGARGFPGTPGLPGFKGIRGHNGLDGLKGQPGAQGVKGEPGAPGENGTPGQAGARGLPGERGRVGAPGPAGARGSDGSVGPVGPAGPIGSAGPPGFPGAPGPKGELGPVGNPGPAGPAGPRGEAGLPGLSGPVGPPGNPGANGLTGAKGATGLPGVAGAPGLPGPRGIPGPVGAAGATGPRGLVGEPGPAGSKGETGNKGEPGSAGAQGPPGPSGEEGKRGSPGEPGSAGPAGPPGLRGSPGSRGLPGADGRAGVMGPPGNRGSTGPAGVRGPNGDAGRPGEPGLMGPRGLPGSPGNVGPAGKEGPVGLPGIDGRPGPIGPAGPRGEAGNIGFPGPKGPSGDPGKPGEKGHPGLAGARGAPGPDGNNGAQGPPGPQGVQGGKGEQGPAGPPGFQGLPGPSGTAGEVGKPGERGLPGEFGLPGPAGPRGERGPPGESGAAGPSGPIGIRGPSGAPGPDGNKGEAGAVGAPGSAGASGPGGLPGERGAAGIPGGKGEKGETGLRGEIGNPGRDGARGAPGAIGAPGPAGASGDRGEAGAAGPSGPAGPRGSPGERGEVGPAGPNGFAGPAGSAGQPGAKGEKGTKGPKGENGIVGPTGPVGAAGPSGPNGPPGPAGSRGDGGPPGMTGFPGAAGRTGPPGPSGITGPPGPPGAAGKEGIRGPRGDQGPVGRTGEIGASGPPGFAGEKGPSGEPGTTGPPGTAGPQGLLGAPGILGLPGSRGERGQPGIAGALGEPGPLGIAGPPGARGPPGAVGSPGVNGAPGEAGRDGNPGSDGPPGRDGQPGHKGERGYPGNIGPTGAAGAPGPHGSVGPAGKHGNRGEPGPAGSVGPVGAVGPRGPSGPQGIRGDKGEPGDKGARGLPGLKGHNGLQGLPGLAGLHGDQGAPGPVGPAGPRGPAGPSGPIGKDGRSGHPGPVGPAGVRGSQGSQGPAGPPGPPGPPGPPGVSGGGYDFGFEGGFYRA

“Glu-DTPA-Gd-G.Q.W.H.C.T.T.R.F.P.H.H.Y.C.L.Y.G-PEG-H ({Glu‑DTPA‑Gd}-GQWHCTTRFPHHYCLYG; disulfide 5-14 (inferred); not fully specified (C-terminus)) [SEQ ID NO: 186]” was tested, and the “T1” value (human type I collagen) was 2.100 s and the “signal of centrifuged collagen gel relative to supernatant” value (rat type I collagen) was “the pellet for sample 4 was much brighter than the supernatant”.
